The values that follow come from the supplement of paper PMC9170038.

For series [1], the system named is MS2 coat protein. The series can be described thus: apparent KD of MS2 coat protein, switch ON state; designed switch direction (-1 OFF switch, 1 ON switch): -1; higher = weaker reporter binding. The following applies: FMN input: 0 or 200 uM; Eterna round: R93 (includes R88 designs). The procedure, abridged: (§1)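 Designed RNA switches were transcribed on-chip from Illumina sequencing clusters and titrated with SNAP-549-labelled MS2 coat protein in twofold steps from 0.7 or 1.5 nM up to 3 µM. Each step lasted 0.8–1.5 h at first and 10–20 min by the end, in 100 mM Tris-HCl pH 7.5, 80 mM KCl and 4 mM MgCl2, without or with constant ligand. Apparent KD is the median, for each design, of fits to normalised cluster binding curves.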

Series [2] relates to MS2 coat protein. The series can be described thus: apparent KD of MS2 coat protein, switch OFF state (with FMN for OFF switches, without FMN for ON switches); designed switch direction (-1 OFF switch, 1 ON switch): -1; higher = weaker reporter binding. The following applies: FMN input: 0 or 200 uM; Eterna round: R93 (includes R88 designs). In a few lines: as §1
The test system of series [3] is MS2 coat protein. The experiment in a line: apparent KD of MS2 coat protein; designed switch direction (-1 OFF switch, 1 ON switch): 1; higher = weaker reporter binding. In a few lines:
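Each step of the titration lasted 0.8–1.5 h at the lowest concentration and 10–20 min at the highest. The protein, SNAP-549-labelled MS2 coat protein, went from 0.7 or 1.5 nM doubling to 3 µM over RNA switches transcribed on Illumina chips by stalled E. coli RNA polymerase. Normalised cluster fluorescence was curve-fitted, and the per-design median over clusters is given as apparent KD.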

Setting [4] is: Eterna round: R95, input ligand: microRNA oligo, concentration not stated.

“AAAAAGCGAGGAUAUACAUGAGGAUCACCCAUGUCAAAAGGUAAGACCGCAGAAAAAAGUAGAAGGCGCAAAAA [Exclusion3-01]”: the entries for the “apparent KD of MS2 coat protein” value in the series on MS2 coat protein [1] and with MS2 coat protein [2] were 0.0681 µM and 0.172 µM, respectively.

As to “AAAAAGCGAGGAUAUACGAGUCAAAGAAAAGACAAAGGGAAACAUGAGGAUCACCCAUGUAGAAGGCGCAAAAA [Fiskers exclusion D2 62% 1]”, the “apparent KD of MS2 coat protein” value in the series on MS2 coat protein [1] was 0.0237 µM; in the series on MS2 coat protein [2] it was 0.134 µM.

For “AAAAAGGCAGGAUAUACAAAAAAGAGAAGAGAGGAGGAGGGACAUGAGGAUCACCCAUGUAGAAGGGCCAAAAA [Karl Gunnar Myrdal]”, the results for the “apparent KD of MS2 coat protein” value in the series with MS2 coat protein [1] and in the series with MS2 coat protein [2] were 0.0315 µM and 0.0325 µM, respectively.

Consider “AAAAAGGGAGGAUAUACAUGAGGAUCACCCAUGUAAAACGCGCCAACAAAGAAACAAAGUAGAAGGCCCAAAAA [Default title]”, for which the “apparent KD of MS2 coat protein” value is 0.0173 µM in the series with MS2 coat protein [1] and 0.0145 µM with MS2 coat protein [2].

Take “AAAAAGGGAGGAUAUACAUGAGGAUCACCCAUGUAUCAGACGAAAAAGAGUCUGGAAUGUAGAAGGCCCAAAAA [65%, Moding Exclusion3-cac2, 3]”: the “apparent KD of MS2 coat protein” value with MS2 coat protein [1] worked out at 0.0143 µM; in the series on MS2 coat protein [2] it was 0.025 µM.

On to “AAAAAGGGAGGAUAUGCAUACACACAAAAAAAAAAAAAGGGACAUGAGGAUCACCCAUGUAGAAGGCCCAAAAA [Dora Explored 5 - Jieux - Exclusion 2]”, for which the results for the “apparent KD of MS2 coat protein” value in the series with MS2 coat protein [1] and in the series with MS2 coat protein [2] were 0.0299 µM and 0.0251 µM, respectively.

“AAAAAGGUAGGAUAUACAUGAGGAUCACCCAUGUACAUAAAUGGAGAAAAAAACAGUAGUAGAAGGGCCAAAAA [Ex3 Malc#10]”: the entries for the “apparent KD of MS2 coat protein” value with MS2 coat protein [1] and with MS2 coat protein [2] were 0.0295 µM and 0.0369 µM, respectively.

Turning to “AAAAAGUCAGGAUAUCGGAAAAUAAAAAUAAAAAUAAAAAACGAGAAGGGACAUGAGGAUCACCCAUGUAUGAC [Mat - Exclusion 4 - Mayanna - D114]”, the “apparent KD of MS2 coat protein” value worked out at 0.0276 µM in the series on MS2 coat protein [1] and 0.0246 µM in the series with MS2 coat protein [2].

With “AAAAAGUGAGGAUAUACAUGAGGAUCACCCAUGUGUAUAAAAAAAUACACAAAAGAAAGUAGAAGGCACUAAAG [Mat - Exclusion 3 - Mayanna mod - D109]”, the figures for the “apparent KD of MS2 coat protein” value with MS2 coat protein [1] and in the series with MS2 coat protein [2] were 0.0284 µM and 0.0848 µM, respectively.

For the sequence “AAAAAGUGAGGAUAUACAUGAGGAUCACCCAUGUGUAUAAAAAAUUACACAAAAGAAUGUAGAAGGCACUAAAA [JL Mayanne Mod Summer]”, the “apparent KD of MS2 coat protein” value with MS2 coat protein [1] amounted to 0.0235 µM; with MS2 coat protein [2] it was 0.124 µM.

For the sequence “AAAAAGUGAGGAUAUACGUUGAAGAGAAAACACAUCCAGGCGUAGAAGGCACAUGAGGAUCACCCAUGUACAAA [Ex4 Malc#7]”, the “apparent KD of MS2 coat protein” value in the series with MS2 coat protein [1] worked out at 0.0234 µM; with MS2 coat protein [2] it was 0.0198 µM.

For the sequence “AAAAAGUGAGGAUAUGGUAAAAAAAAAAAAAAAAAAAAACUCCAGAAGGCACAUGAGGAUCACCCAUGUAAAAA [Jolly's Folly - Jieux - Exclusion 4]”, the results for the “apparent KD of MS2 coat protein” value in the series on MS2 coat protein [1] and with MS2 coat protein [2] were 0.0585 µM and 5.29 µM, respectively.

As for “AAAAAGUGAGGAUAUGUCAAAAGUCACAAAAGUGACAAAAGACAGAAGGCACAUGAGGAUCACCCAUGUGAAAG [Mat - Exaclusion 4 - Eli mod - D53]”, the results for the “apparent KD of MS2 coat protein” value with MS2 coat protein [1] and in the series on MS2 coat protein [2] were 0.0289 µM and 0.0376 µM, respectively.

For “AAAAAGUGAGGAUAUUCGGAUAGGAAAACGAAAACCUAUCCGAAGAAGGCACAUGAGGAUCACCCAUGUGAGAA [67% Ecls-II - Early G + late G segment 4]”, the “apparent KD of MS2 coat protein” value in the series on MS2 coat protein [1] was 0.0265 µM; in the series with MS2 coat protein [2] it was 0.0513 µM.

For “AAAAAGUUAGGAUAUACAUGAGGAUCACCCAUGUACAUAUAUGGAGAAUAUAGCAGUAGUAGAAGGGACAAAAA [EX2 Malc#13]”, the “apparent KD of MS2 coat protein” value in the series with MS2 coat protein [1] stood at 0.0269 µM; in the series on MS2 coat protein [2], 0.0348 µM.

With “AAAAAUCGAGGAUAUACAUGAGGAUCACCCAUGUGGGAACACGAUUACACAAAAGAAAGUAGAAGGCGAUAAAA [Ex 3 May 22]”, the “apparent KD of MS2 coat protein” value in the series with MS2 coat protein [1] is 0.0282 µM; in the series on MS2 coat protein [2], 0.162 µM.

Regarding “UUUGGGUGGCUGGAGGAUAUCCUUGUUGUUACAUGAGGAUCACCCAUGUGCCGCGCGGUUCGCGAGGAGAAGGCUGGCGGCCGUU (puzzle: Same State 2)”, the “apparent KD of MS2 coat protein” value in the series on MS2 coat protein [3] (setting [4]) was 0.169 µM.

With “UUUUCGAACCGAGGAUAUCCUUAUAAGAAACAUGAGGAUCACCCAUGUAAAGGGAAUUAUUUGUAGGAGAAGGCGGAUUUUGUU [JR_SSNG2_Sub054] (Eterna round: R96, puzzle: Same State NG 2)”, in the series with MS2 coat protein [3] (input ligand: microRNA oligo, concentration not stated), the “apparent KD of MS2 coat protein” value amounted to 0.0339 µM.

Take “UUUUUUUUUUAGAGACAAGCUUUUUGAUCACAUGAGGAUCACCCAUGUCUCGUCUUAUUUUUUUUUUUUUUUUUUUU [BA Sensor hsa-mir-208a - 2 - 4] (puzzle: Sensor for hsa-mir-208a)”: the “apparent KD of MS2 coat protein” value in the series with MS2 coat protein [3] (Eterna round: R95, input ligand: FMN 200 uM) is 0.0373 µM; in the series with MS2 coat protein [3] (setting [4]), 0.0175 µM; with MS2 coat protein [3] (Eterna round: R95, input ligand: none), 0.103 µM.
